Laboratory results taken from US20230133381A1.

B1: DA8 (antibody, V domains shown)
VH: EVQLVESGGGLVQPGGSLRLSCAASGFTFSSFNMLWVRQAPGKGLEWVAGIGKSDRYTGYGSAVKGRFTISRDDSKSTVYLQMNSLRAEDTAVYYCVRDAGSGCGSGGWTGACIDTWGQGTLVTVSS
VL: DIQMTQSPSSLSASVGDRVTITCSGGDSYAGSYYYGWYQQKPGKAPKTLIYNNNNRPSGVPSRFSGSGSGTDFTLTISSLQPEDFATYYCGSRDSSYVGIFGQGTKVEIK
B2: DA9 (antibody, V domains shown)
VH: EVQLVESGGGLVQPGGSLRLSCAASGFTFSSFNMLWVRQAPGKGLEWVAGIGKSDRYTGYGSAVKGRFTISRDDSKSTLYLQMNSLRAEDTAVYYCVRDAGSGCGSGGWTGACIDTWGQGTLVTVSS
VL: DIQMTQSPSSLSASVGDRVTITCSGGDSYAGSYYYGWYQQKPGKAPKTLIYNNNNRPSGVPSRFSGSRSGTDFTLTISSLQPEDFATYYCGSRDSSYVGIFGQGTKVEIK
B3: DA18 (antibody, V domains shown)
VH: EVQLVESGGGLVQPGGSLRLSCAASGFTFSSFNMLWVRQAPGKGLEWVAGIGKSDRYTGYGSAVKGRFTISRDDSKSTVYLQMNSLRAEDTAVYYCVRDAGSGCGSGGWTGACIDTWGQGTLVTVSS
VL: DIQMTQSPSSLSASVGDRVTITCSGGDSYAGSYYYGWYQQKPGKAPKTLIYNNNNRPSGVPSRFSGSRSGTDFTLTISSLQPEDFATYYCGSRDSDGGGRFGQGTKVEIK
B4: DA15 (antibody, V domains shown)
VH: EVQLVESGGGLVQPGGSLRLSCAASGFTFSSFNMLWVRQAPGKGLEWVAGIGKSDRYTGYGSAVKGRFTISRDTSKNTAYLQMNSLRAEDTAVYYCSRDAGSGCGSGGWTGACIDTWGQGTLVTVSS
VL: DIQMTQSPSSLSASVGDRVTITCSGGDSYAGSYYYGWYQQKPGKAPKTLIYNNNNRPSGVPSRFSGSRSGTDFTLTISSLQPEDFATYYCGSRDSDGGGRFGQGTKVEIK
B5: DA5 (antibody, V domains shown)
VH: EVQLVESGGGLVQPGGSLRLSCAASGFTFSSFNMLWVRQAPGKGLEWVAGIGKSDRYTGYGSAVKGRFTISRDDSKSTAYLQMNSLRAEDTAVYYCVRDAGSGCGSGGWTGACIDTWGQGTLVTVSS
VL: DIQMTQSPSSLSASVGDRVTITCSGGDSYAGSYYYGWYQQKPGKAPKTLIYNNNNRPSGVPSRFSGSTSGTDFTLTISSLQPEDFATYYCGSRDSSYVGIFGQGTKVEIK
B6: DA23 (antibody, V domains shown)
VH: EVQLVESGGGLVQPGGSLRLSCAASGFTFSSFNMLWVRQAPGKGLEWVAGIGKSDRYTGYGSAVKGRFTISRDDSKSTVYLQMNSLRAEDTAVYYCVRDAGSPCGKGGWTGACIDTWGQGTLVTVSS
VL: DIQMTQSPSSLSASVGDRVTITCSGGDSYAGSYYYGWYQQKPGKAPKTLIYNNNNRPSGVPSRFSGSTSGTDFTLTISSLQPEDFATYYCGSRDSSYVGIFGQGTKVEIK
B7: DA22 (antibody, V domains shown)
VH: EVQLVESGGGLVQPGGSLRLSCAASGFTFSSFNMLWVRQAPGKGLEWVAGIGKSDRYTGYGSAVKGRFTISRDDSKSTVYLQMNSLRAEDTAVYYCVRDAGSPCGSGGWTGACIDTWGQGTLVTVSS
VL: DIQMTQSPSSLSASVGDRVTITCSGGDSYAGSYYYGWYQQKPGKAPKTLIYNNNNRPSGVPSRFSGSTSGTDFTLTISSLQPEDFATYYCGSRDSSYVGIFGQGTKVEIK
B8: DA17 (antibody, V domains shown)
VH: EVQLVESGGGLVQPGGSLRLSCAASGFTFSSFNMLWVRQAPGKGLEWVAGIGKSDRYTGYGSAVKGRFTISRDDSKSTVYLQMNSLRAEDTAVYYCVRDAGSGCGSGGWTGACIDTWGQGTLVTVSS
VL: DIQMTQSPSSLSASVGDRVTITCSGGDSYAGSYYYGWYQQKPGKAPKTLIYNNNNKAKGVPSRFSGSRSGTDFTLTISSLQPEDFATYYCGSRDSSYVGIFGQGTKVEIK
B9: D0 (antibody, V domains shown)
VH: AVTLDESGGGLQTPGGGLSLVCKGSGFTFSSFNMLWVRQAPGKGLEWVAGIGKSDRYTGYGSAVKGRATISRDDGQSTVRLQLNNLRAEDTGTYYCVKDAGSGCGSGGWTGACIDTWGHGTEVIVSS
VL: LTQPSSVSANLGGTVEITCSGGDSYAGSYYYGWYQQKAPGSAPVTVIYNNNNRPSNIPSRFSGSTSGSTATLTITGVQAEDEAVYFCGSRDSSYVGIFGAGTTLTVL
B10: DA29 (antibody, V domains shown)
VH: AVTLDESGGGLQTPGGGLSLVCKGSGFTFSSFNMLWVRQAPGKGLEWVAGIGKSDRYTGYGSAVKGRATISRDDGQSTARLQLNNLRAEDTGTYYCVKDAGSGCGSGGWTGACIDTWGHGTEVIVSS
VL: LTQPSSVSANLGGTVEITCSGGDSYAGSYYYGWYQQKAPGSAPVTVIYNNNNRPSNIPSRFSGSTSGSTATLTITGVQAEDEATYFCGSRDSSYVGIFGAGTTLTVL
B11: DA30 (antibody, V domains shown)
VH: AVTLDESGGGLQTPGGGLSLVCKGSGFTFSSFNMLWVRQAPGKGLEWVAGIGKSDRYTGYGSAVKGRATISRDDGQSTAYLQMNSLRAEDTGTYYCVKDAGSGCGSGGWTGACIDTWGHGTEVIVSS
VL: LTQPSSVSANLGGTVEITCSGGDSYAGSYYYGWYQQKAPGSAPVTVIYNNNNRPSNIPSRFSGSTSGSTATLTITGVQAEDEATYYCGSRDSSYVGIFGAGTTLTVL
B12: DA31 (antibody, V domains shown)
VH: AVTLDESGGGLQTPGGGLSLVCKGSGFTFSSFNMLWVRQAPGKGLEWVAGIGKSDRYTGYGSAVKGRATISRDDGQSTARLQMNSLRAEDTGTYYCVKDAGSGCGSGGWTGACIDTWGHGTEVIVSS
VL: LTQPSSVSANLGGTVEITCSGGDSYAGSYYYGWYQQKAPGSAPVTVIYNNNNRPSNIPSRFSGSTSGSTATLTITGVQAEDEATYFCGSRDSSYVGIFGAGTTLTVL
B13: DA26 (antibody, V domains shown)
VH: AVTLDESGGGLQTPGGGLSLVCKGSGFTFSSFNMLWVRQAPGKGLEWVAGIGKSDRYTGYGSAVKGRATISRDDGQSTVYLQMNSLRAEDTGTYYCVKDAGSGCGSGGWTGACIDTWGHGTEVIVSS
VL: LTQPSSVSANLGGTVEITCSGGDSYAGSYYYGWYQQKAPGSAPVTVIYNNNNRPSNIPSRFSGSTSGSTATLTITGVQAEDEATYYCGSRDSSYVGIFGAGTTLTVL
B14: DA28 (antibody, V domains shown)
VH: AVTLDESGGGLQTPGGGLSLVCKGSGFTFSSFNMLWVRQAPGKGLEWVAGIGKSDRYTGYGSAVKGRATISRDDGQSTARLQLNNLRAEDTGTYYCVKDAGSGCGSGGWTGACIDTWGHGTEVIVSS
VL: LTQPSSVSANLGGTVEITCSGGDSYAGSYYYGWYQQKAPGSAPVTVIYNNNNRPSNIPSRFSGSTSGSTATLTITGVQAEDEAVYFCGSRDSSYVGIFGAGTTLTVL
B15: DA33 (antibody, V domains shown)
VH: AVTLDESGGGLQTPGGGLSLVCKGSGFTFSSFNMLWVRQAPGKGLEWVAGIGKSDRYTGYGSAVKGRATISRDDGQSTARLQLNNLRAEDTAVYYCVKDAGSGCGSGGWTGACIDTWGHGTEVIVSS
VL: LTQPSSVSANLGGTVEITCSGGDSYAGSYYYGWYQQKAPGSAPVTVIYNNNNRPSNIPSRFSGSTSGSTATLTITGVQAEDEATYFCGSRDSSYVGIFGAGTTLTVL

How the values were obtained:
human DR5 (human) [1] = experiment: TRAIL competitive ELISA: human DR5 coated on the plate (0.1 ug/ml), TRAIL titrated against the binding of control antibody AP, bound AP detected with anti-human Fc-HRP, ABTS, absorbance at 405 nm
human DR5 (human) [2] = experiment: SPR (BIAcore X100), human DR5 on CM5 chip, IgG injected, 1:1 Langmuir model
human DR5 (human) [3] = experiment: ELISA: human DR5 coated on the plate (10 ng/ml), antibody titrated, anti-human Fc-HRP, TMB, absorbance at 450 nm

Row | Molecule | IC50 (read off the curve) (human DR5 (human) [1]) [pM] | Kd (human DR5 (human) [2]) [pM] | koff (human DR5 (human) [2]) [s⁻¹] | kon (human DR5 (human) [2]) [M⁻¹ s⁻¹] | EC50 (read off the curve) (human DR5 (human) [3]) [µg/mL]
1 | TRAIL protein (from UniProt P50591 114-281) (ligand) | 5000 |  |  |  | 
2 | B1 |  | < 6.25 | < 1e-05 | 1.6e+06 | 0.02
3 | B2 |  | 0.071 | 4e-07 | 5.6e+06 | 0.02
4 | B3 |  | 27.7 | 3.67e-05 | 1.33e+06 | 0.03
5 | B4 |  | 1.09 | 2.78e-06 | 2.56e+06 | 0.01
6 | B5 |  | < 8.33 | < 1e-05 | 1.2e+06 | 0.03
7 | B6 |  | 40.3 | 2.8e-05 | 696000 | 0.01
8 | B7 |  | 34.2 | 3.19e-05 | 932000 | 0.02
9 | B8 |  | 23.5 | 5.97e-05 | 2.54e+06 | 0.03
10 | B9 |  | 15.2 | 2.26e-05 | 1.49e+06 | 0.006
11 | B10 |  | 69.8 | 8.47e-05 | 1.21e+06 | 0.01
12 | B11 |  | 77.4 | 7.97e-05 | 1.03e+06 | 0.02
13 | B12 |  | 70.6 | 8.79e-05 | 1.24e+06 | 0.02
14 | B13 |  | 1.01 | 1.1e-06 | 1.09e+06 | 0.02
15 | B14 |  | 3.89 | 4.52e-06 | 1.16e+06 | 0.02
16 | B15 |  | 78.8 | 9.77e-05 | 1.24e+06 | 0.02
